Assay results reported in IntAct's records for PubMed 10102273.

B1: Forkhead box protein O3 (Homo sapiens), O43524 (parent)
chain: MAEAPASPAPLSPLEVELDPEFEPQSRPRSCTWPLQRPELQASPAKPSGETAADSMIPEEEDDEDDEDGGGRAGSAMAIGGGGGSGTLGSGLLLEDSARVLAPGGQDPGSGPATAAGGLSGGTQALLQPQQPLPPPQPGAAGGSGQPRKCSSRRNAWGNLSYADLITRAIESSPDKRLTLSQIYEWMVRCVPYFKDKGDSNSSAGWKNSIRHNLSLHSRFMRVQNEGTGKSSWWIINPDGGKSGKAPRRRAVSMDNSNKYTKSRGRAAKKKAALQTAPESADDSPSQLSKWPGSPTSRSSDELDAWTDFRSRTNSNASTVSGRLSPIMASTELDEVQDDDAPLSPMLYSSSASLSPSVSKPCTVELPRLTDMAGTMNLNDGLTENLMDDLLDNITLPPSQPSPTGGLMQRSSSFPYTTKGSGLGSPTSSFNSTVFGPSSLNSLRQSPMQTIQENKPATFSSMSHYGNQTLQDLLTSDSLSHSDVMMTQSDPLMSQASTAVSAQNSRRNVMLRNDPMMSFAAQPNQGSLVNQNLLHHQHQTQGALGGSRALSNSVSNMGLSESSSLGSAKHQQQSPVSQSMQTLSDSLSGSSLYSTSANLPVMGHEKFPSDLDLDMFNGSLECDMESIIRSELMDADGLDFNFDSLISTQNVVGLNVGNFTGAKQASSQSWVPG

Variants of: B1
Conditions: with 1433z_human YWHAZ

| Variant | effect of a mutation on the interaction |
| --- | --- |
| T32A | decreasing interaction strength |
| T32A;S253A | disrupting interaction strength |
| S253A | decreasing interaction strength |
| S315A | with no effect |

Variants of: B1
Conditions: with akt1_human AKT1, P31749
akt1_human AKT1, P31749, sequence (P31749 whole entry): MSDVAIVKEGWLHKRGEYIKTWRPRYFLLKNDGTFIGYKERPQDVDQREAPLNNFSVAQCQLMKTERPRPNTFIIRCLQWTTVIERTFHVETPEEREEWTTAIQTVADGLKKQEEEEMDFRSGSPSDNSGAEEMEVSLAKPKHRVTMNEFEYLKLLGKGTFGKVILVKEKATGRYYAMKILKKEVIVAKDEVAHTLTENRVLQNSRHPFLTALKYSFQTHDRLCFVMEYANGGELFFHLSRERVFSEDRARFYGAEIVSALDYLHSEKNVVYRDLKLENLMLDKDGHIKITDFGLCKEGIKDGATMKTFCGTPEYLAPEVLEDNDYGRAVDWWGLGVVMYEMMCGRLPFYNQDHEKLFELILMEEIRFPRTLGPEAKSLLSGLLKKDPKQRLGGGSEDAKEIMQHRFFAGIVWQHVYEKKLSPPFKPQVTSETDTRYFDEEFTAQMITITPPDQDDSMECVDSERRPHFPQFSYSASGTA

| Variant | effect of a mutation on the interaction |
| --- | --- |
| S315A | with no effect |
